Source: patent publication US20240117043A1 (SHANGHAI JUNSHI BIOSCIENCES, published 2024)

T1: recombinant human HX1 hCD112R Fc (human, UniProt Q6DKI7 41-171, limits assumed)
T1 construct: Coated antigen of the ELISA (Suzhou Junmeng); also called human CD112R; not shown: Fc part
T1 sequence (looked up): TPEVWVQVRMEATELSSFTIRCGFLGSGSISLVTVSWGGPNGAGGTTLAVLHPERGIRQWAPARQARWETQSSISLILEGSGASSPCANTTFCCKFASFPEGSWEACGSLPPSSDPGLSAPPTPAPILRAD

T2: recombinant human TIGIT (His Tag) (human, UniProt Q495A1 22-141)
T2 construct: Coated antigen of the ELISA; not shown: His tag
T2 sequence (looked up): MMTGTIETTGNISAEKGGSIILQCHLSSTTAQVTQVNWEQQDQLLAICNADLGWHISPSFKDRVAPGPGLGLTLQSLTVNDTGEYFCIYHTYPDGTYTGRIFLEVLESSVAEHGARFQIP

T3: human TIGIT on the surface of Jurkat-hTIGIT cells (human, UniProt Q495A1 22-244)
T3 construct: whole, on cells; also called human TIGIT on the surface of Jurkat cells
T3 sequence (looked up): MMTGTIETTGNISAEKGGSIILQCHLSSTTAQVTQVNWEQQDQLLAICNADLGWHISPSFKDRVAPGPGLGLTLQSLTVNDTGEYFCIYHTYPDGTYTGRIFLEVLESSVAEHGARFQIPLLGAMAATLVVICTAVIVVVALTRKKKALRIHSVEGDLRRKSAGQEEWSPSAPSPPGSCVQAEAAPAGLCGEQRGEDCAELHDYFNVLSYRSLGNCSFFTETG


Key:
[1] = target: T1, recombinant human HX1 hCD112R Fc; assay: ELISA, relative binding activity, sample kept at 40 C for 4 weeks
Protocol: (§1) The antibody samples were exchanged into a pH 5.5 buffer system (20 mM histidine-histidine hydrochloride buffer, 230 mM trehalose) with the concentration of the samples controlled at about 5 mg/mL, and the buffer was aliquoted into vials at 500 μL/vial. The vials were placed in a 40° C. incubator to test stability at 0 W, 2 W and 4 W. Samples were sent for analysis according to Table 2. Stability was assessed by the following parameters: (a) the content of antibody monomers, aggregates or fragments determined by SEC-HPLC (size exclusion chromatography); (b) the molecular weight of the antibody determined by CE-SDS (sodium dodecyl sulfate capillary electrophoresis); and (c) the bioactivity of the antibody determined by an ELISA or reporter gene assay.

[2] = target: T2, recombinant human TIGIT (His Tag); assay: as above
Protocol: as §1

[3] = target: T3, human TIGIT on the surface of …; assay: flow cytometry, blocking of 1 ug/mL PVR-mFc binding to Jurkat-hTIGIT cells
Protocol: Jurkat-hTIGIT cells (human T lymphocytes, human TIGIT positive) were incubated with different concentrations of the bispecific antibodies JS-1, JS-3, JS-5 and JS-9 and 1 μg/mL human PVR-mFc protein at 4° C. for 30 min, then washed and incubated with a fluorescence-labeled anti-mouse IgG secondary antibody (1:200) in a dark place at 4° C. for 30 min. Finally, the cells were collected using a flow cytometer (BD Canto II), and the fluorescent antibodies bound to the cell surface were detected. Raw data were analyzed using FlowJo to obtain MFI values, antibody dose-dependent binding curves (FIG. 4) were fitted using GraphPad, and IC50 was calculated. The positive controls were hu20 (a recombinant humanized anti-TIGIT monoclonal antibody) and JS-Ref (Hengrui) (an anti-TIGIT/CD112R bispecific antibody of Hengrui, expressed and purified according to the sequence of the patent WO2021180205), and the negative control was an anti-KLH-hIgG4 antibody.

| CD112R binding activity Elisa (%) [1] | TIGIT binding activity Elisa (%) [2] | IC50 [3] | Binder |
| --- | --- | --- | --- |
| 86% | 97% | 5.42 nM | bispecific antibody JS-1 (IgG4) (bispecific antibody, Three-chain knob-into-hole format: anti-TIGIT Fab arm and anti-CD112R scFv arm, IgG4 Fc) heavy: QVQLVQSGAEVKKPGASVKVSCKTSGYAFTEYTMHWVRQAPGKGLEWMGGINPNTGGTTYNQKFQGRVTLTVDKSSSTAYMELSSLRSEDTVVYYCAKLLRLMYYFDYWGQGTLVTVSSASTKGPSVFPLAPCSRSTSESTAALGCLVKDYFPEPVTVSWNSGALTSGVHTFPAVLQSSGLYSLSSVVTVPSSSLGTKTYTCNVDHKPSNTKVDKRVESKYGPPCPPCPAPEFLGGPSVFLFPPKPKDTLMISRTPEVTCVVVDVSQEDPEVQFNWYVDGVEVHNAKTKPREEQFNSTYRVVSVLTVLHQDWLNGKEYKCKVSNKGLPSSIEKTISKAKGQPREPQVYTLPPCQEEMTKNQVSLWCLVKGFYPSDIAVEWESNGQPENNYKTTPPVLDSDGSFFLYSRLTVDKSRWQEGNVFSCSVMHEALHNHYTQKSLSLSLGK light: not shown DIVMTQSPDSLAVSLGERATINCKASQSVSNDVAWYQQKPGQPPKLLIYYVSHRFTGVPDRFSGSGSGTDFTLTISSLQAEDVAVYFCHQAYRSPWTFGCGTKLEIKGGGGSGGGGSGGGGSGGGGSEVQLVESGGGLVKPGGSLRLSCAASGFTFSSYHMSWVRQAPGKCLELVSAINSNGINTYYLDTVKGRFTISRDNAKNSLYLQMNSLRAEDTAVYYCARHEDYYGFAMDYWGQGTLVTVSSGGGGSGGGGSESKYGPPCPPCPAPEFLGGPSVFLFPPKPKDTLMISRTPEVTCVVVDVSQEDPEVQFNWYVDGVEVHNAKTKPREEQFNSTYRVVSVLTVLHQDWLNGKEYKCKVSNKGLPSSIEKTISKAKGQPREPQVCTLPPSQEEMTKNQVSLSCAVKGFYPSDIAVEWESNGQPENNYKTTPPVLDSDGSFFLVSRLTVDKSRWQEGNVFSCSVMHEALHNRFTQKSLSLSLGK |
| 88% | 84% | 6.78 nM | bispecific antibody JS-3 (IgG4) (bispecific antibody, Two-chain scFab/scFab knob-into-hole format, IgG4 Fc) chain 1: not shown chain 2: DIVMTQSPDSLAVSLGERATINCKASQSVSNDVAWYQQKPGQPPKLLIYYVSHRFTGVPDRFSGSGSGTDFTLTISSLQAEDVAVYFCHQAYRSPWTFGQGTKLEIKRTVAAPSVFIFPPSDEQLKSGTASVVCLLNNFYPREAKVQWKVDNALQSGNSQESVTEQDSKDSTYSLSSTLTLSKADYEKHKVYACEVTHQGLSSPVTKSFNRGECSGGGSGGGSEGGGSEGGGSEGGGSEGGGSGGGSGEVQLVESGGGLVKPGGSLRLSCAASGFTFSSYHMSWVRQAPGKGLELVSAINSNGINTYYLDTVKGRFTISRDNAKNSLYLQMNSLRAEDTAVYYCARHEDYYGFAMDYWGQGTLVTVSSASTKGPSVFPLAPCSRSTSESTAALGCLVKDYFPEPVTVSWNSGALTSGVHTFPAVLQSSGLYSLSSVVTVPSSSLGTKTYTCNVDHKPSNTKVDKRVESKYGPPCPPCPAPEFLGGPSVFLFPPKPKDTLMISRTPEVTCVVVDVSQEDPEVQFNWYVDGVEVHNAKTKPREEQFNSTYRVVSVLTVLHQDWLNGKEYKCKVSNKGLPSSIEKTISKAKGQPREPQVCTLPPSQEEMTKNQVSLSCAVKGFYPSDIAVEWESNGQPENNYKTTPPVLDSDGSFFLVSRLTVDKSRWQEGNVFSCSVMHEALHNRFTQKSLSLSLGK |
